From patent US20240209086A1 (PETMEDIX, published 2024) come the findings set out here.

In assay [1] the target is canine CD3 on canine T cells (canine PBMC) (canine, UniProt P27597 22-202). The assay is described as follows: cell-based or functional assay.
Assay [2] concerns the target T1, canine CD3εδ-Fc (heterodimer of canine CD3ε-hIgG4PE-knob and canine CD3δ-hIgG4PE-hole) (canine).
T1 construct: also called CD3εδ-Fc fusion protein; copies: 1 + 1
The assay is described as follows: SPR (Biacore 8K), CD3εδ-Fc amine-coupled to CM5 chip, multi-cycle kinetics, antibody 600-7.4 nM. The protocol: Binding affinity of shortlisted candidates, described in Example 3, were assessed using Biacore 8K (Cytiva). Briefly, a CM5 Sensor Chip (Cytiva) was docked onto a Biacore 8K, equilibrated for 30′ at RT and then Running Buffer (10 mM HEPES pH6 150 mM NaCl 3 mM EDTA and 0.005% Tween20) was applied to the SPR chip surface. Canine CD3εδ-Fc was diluted into 10 mM acetate buffer pH4.5 and immobilised using standard amine coupling reaction. Antibodies dilutions were prepared by diluting the shortlisted candidates from 600 nM to 7.4 nM (5 concentrations with 1:3 dilutions) in running buffer and kinetics was assessed using multi-cycle kinetics method (120 sec association-300 sec dissociation). Kinetics and/or Affinity quantification was performed using Biacore Insight following standard analyses methods.

Assay [3] deals with T2, canine CD20 on cells (HEK293, MDCK II, CLBL-1 or native B cells) (canine, UniProt Q3C2E2 1-297).
T2 chain: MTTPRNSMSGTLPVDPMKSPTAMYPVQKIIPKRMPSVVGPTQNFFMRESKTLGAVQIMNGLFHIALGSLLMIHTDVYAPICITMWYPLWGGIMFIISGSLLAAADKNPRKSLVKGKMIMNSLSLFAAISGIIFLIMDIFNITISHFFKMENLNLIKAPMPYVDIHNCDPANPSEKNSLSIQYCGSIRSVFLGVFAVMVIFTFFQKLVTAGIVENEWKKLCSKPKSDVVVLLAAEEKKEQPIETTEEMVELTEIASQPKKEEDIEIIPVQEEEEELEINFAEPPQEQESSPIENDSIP
In words: cell-based or functional assay.

In assay [4] the target is T2, canine CD20 on cells (HEK293, MDCK II, …). In words: cell-based or functional assay.

T1 sequence (chain, as listed by the source mutant limits assumed): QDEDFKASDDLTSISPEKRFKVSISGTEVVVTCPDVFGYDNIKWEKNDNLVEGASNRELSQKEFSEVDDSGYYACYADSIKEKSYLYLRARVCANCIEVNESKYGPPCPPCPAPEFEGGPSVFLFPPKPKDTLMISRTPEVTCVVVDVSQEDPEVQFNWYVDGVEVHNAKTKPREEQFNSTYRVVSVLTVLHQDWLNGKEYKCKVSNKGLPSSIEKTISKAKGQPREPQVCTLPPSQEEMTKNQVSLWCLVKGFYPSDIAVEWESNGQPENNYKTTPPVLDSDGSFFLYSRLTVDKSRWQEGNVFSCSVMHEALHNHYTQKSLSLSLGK
Chain of canine CD3 on canine T cells (canine PBMC) (P27597 22-202 limits assumed, chain 1 of 3): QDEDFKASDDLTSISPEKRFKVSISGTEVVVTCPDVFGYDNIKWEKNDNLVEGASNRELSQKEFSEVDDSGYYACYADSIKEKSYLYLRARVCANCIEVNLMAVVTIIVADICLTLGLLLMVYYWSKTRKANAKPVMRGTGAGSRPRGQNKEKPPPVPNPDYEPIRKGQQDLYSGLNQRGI
Chain of canine CD3 on canine T cells (canine PBMC) (chain, as listed by the source limits assumed, chain 2 of 3): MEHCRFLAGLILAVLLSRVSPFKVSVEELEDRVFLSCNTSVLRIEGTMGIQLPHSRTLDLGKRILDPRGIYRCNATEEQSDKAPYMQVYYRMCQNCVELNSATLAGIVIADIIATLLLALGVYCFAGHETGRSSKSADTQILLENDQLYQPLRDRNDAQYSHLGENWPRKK
Chain of canine CD3 on canine T cells (canine PBMC) (chain, as listed by the source limits assumed, chain 3 of 3): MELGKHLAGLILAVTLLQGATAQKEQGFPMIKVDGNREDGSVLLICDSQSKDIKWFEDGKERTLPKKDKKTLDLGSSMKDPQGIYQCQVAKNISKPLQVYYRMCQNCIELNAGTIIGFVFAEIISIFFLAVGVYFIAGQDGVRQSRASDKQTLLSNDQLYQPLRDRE

B1: PMX187 in bispecific format (canine CD3 arm PMX187 x Rituximab arm, human IgG4PE knob-in-hole) (bispecific antibody)
heavy 1: EVQLVESGGDLVKPGGSLRLSCVASGFTFSSYHMSWVRQAPGKGLQWVASINSGGSRTSYVDAVKGRFTISRDNAKNTLYLQMNSLRAEDTAVYYCASGRTGPKLGLGDYGMDSWGHGTSLFVSSASTKGPSVFPLAPCSRSTSESTAALGCLVKDYFPEPVTVSWNSGALTSGVHTFPAVLQSSGLYSLSSVVTVPSSSLGTKTYTCNVDHKPSNTKVDKRVESKYGPPCPPCPAPEFEGGPSVFLFPPKPKDTLMISRTPEVTCVVVDVSQEDPEVQFNWYVDGVEVHNAKTKPREEQFNSTYRVVSVLTVLHQDWLNGKEYKCKVSNKGLPSSIEKTISKAKGQPREPQVYTLPPSQCEMTKNQVSLSCAVKGFYPSDIAVEWESNGQPENNYKTTPPVLDSDGSFFLVSRLTVDKSRWQEGNVFSCSVMHEALHNRFTQKSLSLSLGK
light 1: SYVLTQLPSKNVTLKQPAHITCGGDNIGSKSVHWYQQKLGQAPVLIIYYDSSRPTGIPERFSGANSGNTATLTISGALAEDEADYYCQVWDSSAKAWVFGAGTQLTVLRTVAAPSVFIFPPSDEQLKSGTASVVCLLNNFYPREAKVQWKVDNALQSGNSQESVTEQDSKDSTYSLSSTLTLSKADYEKHKVYACEVTHQGLSSPVTKSFNRGEC
heavy 2: not shown
light 2: QIVLSQSPAILSASPGEKVTMTCRASSSVSYIHWFQQKPGSSPKPWIYATSNLASGVPVRFSGSGSGTSYSLTISRVEAEDAATYYCQQWTSNPPTFGGGTKLEIKRTVAAPSVFIFPPSDEQLKSGTASVVCLLNNFYPREAKVQWKVDNALQSGNSQESVTEQDSKDSTYSLSSTLTLSKADYEKHKVYACEVTHQGLSSPVTKSFNRGEC
With B1, in assay [1], the “EC50 (M) of killing potency, bispecific killing of hCD20+GFP MDCK II cells by canine PBMC” value came to 1.14e-08 M. In assay [2], this molecule registered an equilibrium dissociation constant (Kd) of 106 nM.

B2: PMX188 in bispecific format (canine CD3 arm PMX188 x Rituximab arm, human IgG4PE knob-in-hole) (bispecific antibody)
heavy 1: EVQLVESGGDLVKPGGSLRLSCVASGFTFSSYHMSWVRQAPGKGLQWVASINSGGSRTSYVDAVKGRFTISRDNAKKTLYLQMNSLRAEDTAVYYCASGRTGPKLGLGDYGMDSWGHGTSLFVSSASTKGPSVFPLAPCSRSTSESTAALGCLVKDYFPEPVTVSWNSGALTSGVHTFPAVLQSSGLYSLSSVVTVPSSSLGTKTYTCNVDHKPSNTKVDKRVESKYGPPCPPCPAPEFEGGPSVFLFPPKPKDTLMISRTPEVTCVVVDVSQEDPEVQFNWYVDGVEVHNAKTKPREEQFNSTYRVVSVLTVLHQDWLNGKEYKCKVSNKGLPSSIEKTISKAKGQPREPQVYTLPPSQCEMTKNQVSLSCAVKGFYPSDIAVEWESNGQPENNYKTTPPVLDSDGSFFLVSRLTVDKSRWQEGNVFSCSVMHEALHNRFTQKSLSLSLGK
light 1: SYVLTQLPSKNVTLKQPAHITCGGDNIGSKSVHWYQQKLGQAPILIIYYDSSRPTGIPERFSGANSGNTATLTISGALAEDEADYYCQVWDSSAKAWVFGEGTQLTVLRTVAAPSVFIFPPSDEQLKSGTASVVCLLNNFYPREAKVQWKVDNALQSGNSQESVTEQDSKDSTYSLSSTLTLSKADYEKHKVYACEVTHQGLSSPVTKSFNRGEC
heavy 2: not shown
light 2: QIVLSQSPAILSASPGEKVTMTCRASSSVSYIHWFQQKPGSSPKPWIYATSNLASGVPVRFSGSGSGTSYSLTISRVEAEDAATYYCQQWTSNPPTFGGGTKLEIKRTVAAPSVFIFPPSDEQLKSGTASVVCLLNNFYPREAKVQWKVDNALQSGNSQESVTEQDSKDSTYSLSSTLTLSKADYEKHKVYACEVTHQGLSSPVTKSFNRGEC
Regarding B2, the “EC50 (M) of killing potency, bispecific killing of hCD20+GFP MDCK II cells by canine PBMC” value in assay [1] is 8.23e-09 M. Also, the dissociation constant (Kd) in assay [2] stood at 292 nM.

B3: PMX172VH/PMX262VH/PMX172VL (bispecific antibody, V domains shown)
VH 1: EVQLVESGGDLVKPGGSLRLSCVASGFTFSSYHMSWVRQAPGKGLQWVAYSNSGGSRTSYADAVKGRFTISRDNAKNTLYLQMNSLRAEDTAVYYCASEGGGGRYGYKDYGMDYWGHGTSLFVSS
VH 2: EVQLVESGGDLVKPGGSLRLSCVASGITFSRYYMNWVRQAPGKGLQWVAYINSGGSPTTYADAVKGRFTISRDNAKNTLYLQMNSLRAEDTAVYYCTSFDYWGQGTLVTVSS
VL: SYVLTQLPSKNVTLKQPAHITCGGDNIGSKSVHWYQQKLGQAPVLIIYYDSSRPTGIPERFSGANSGNTATLTISGALAEDEADYYCQVWDSSAKAWVFGEGTQLTVL
Consider B3, for which the “EC50 (nM), endogenous B cell depletion in PBMC (FIG. 16A)” value (“EC50 (nM), endogenous B cell depletion” for short) in assay [3] was determined as 0.247 nM. For the same molecule, in assay [4], the “EC50 (nM), bispecific killing (FIG. 15)” value was 0.129 nM.

B4: PMX172VH/PMX229VH/PMX172VL (bispecific antibody, V domains shown)
VH 1: EVQLVESGGDLVKPGGSLRLSCVASGFTFSSYHMSWVRQAPGKGLQWVAYSNSGGSRTSYADAVKGRFTISRDNAKNTLYLQMNSLRAEDTAVYYCASEGGGGRYGYKDYGMDYWGHGTSLFVSS
VH 2: EVQLVESGGDLVKPGGSLRLSCVASGITFSRYHMSWVRQAPGKGLQWVAFINTGRSSTNYADAVAGRFTISRDNAKNTLYLQMNGLTVEDTAVYYCSTLDYWGQGTLVTVSS
VL: SYVLTQLPSKNVTLKQPAHITCGGDNIGSKSVHWYQQKLGQAPVLIIYYDSSRPTGIPERFSGANSGNTATLTISGALAEDEADYYCQVWDSSAKAWVFGEGTQLTVL
In the case of B4, the “EC50 (nM), bispecific killing (FIG. 15)” value in assay [4] was found to be 1.02 nM.

B5: PMX172VH/PMX268VH/PMX172VL (bispecific antibody, V domains shown)
VH 1: EVQLVESGGDLVKPGGSLRLSCVASGFTFSSYHMSWVRQAPGKGLQWVAYSNSGGSRTSYADAVKGRFTISRDNAKNTLYLQMNSLRAEDTAVYYCASEGGGGRYGYKDYGMDYWGHGTSLFVSS
VH 2: EVQLVESGGDLMKPGGSLRLSCVASGITFSGYHMSWVRQAPGKGLQWVAFINSGRKNTAYADAVKGRFTISRDNAKNTLYLQMNSLRAEDTAIYYCTTLEFWGQGTLVTVSS
VL: SYVLTQLPSKNVTLKQPAHITCGGDNIGSKSVHWYQQKLGQAPVLIIYYDSSRPTGIPERFSGANSGNTATLTISGALAEDEADYYCQVWDSSAKAWVFGEGTQLTVL
B5: in assay [3], the “EC50 (nM), endogenous B cell depletion” value amounted to 0.764 nM.

B6: PMX172VH/PMX240VH/PMX172VL (bispecific antibody, V domains shown)
VH 1: EVQLVESGGDLVKPGGSLRLSCVASGFTFSSYHMSWVRQAPGKGLQWVAYSNSGGSRTSYADAVKGRFTISRDNAKNTLYLQMNSLRAEDTAVYYCASEGGGGRYGYKDYGMDYWGHGTSLFVSS
VH 2: EVQLVESGGDLVKPGGSLRLSCVASGLTFSRYHMSWVRQAPGKGLQWVAFINSGRSDTTYADAVKGRFTISRDNAKNTLYLQMNSLRAEDTAVYYCTTFDYWGQGTLVTVSS
VL: SYVLTQLPSKNVTLKQPAHITCGGDNIGSKSVHWYQQKLGQAPVLIIYYDSSRPTGIPERFSGANSGNTATLTISGALAEDEADYYCQVWDSSAKAWVFGEGTQLTVL
Consider B6, for which the “EC50 (nM), bispecific killing (FIG. 15)” value in assay [4] was found to be 0.341 nM.

B7: PMX172VH/PMX230VH/PMX172VL (bispecific antibody, V domains shown)
VH 1: EVQLVESGGDLVKPGGSLRLSCVASGFTFSSYHMSWVRQAPGKGLQWVAYSNSGGSRTSYADAVKGRFTISRDNAKNTLYLQMNSLRAEDTAVYYCASEGGGGRYGYKDYGMDYWGHGTSLFVSS
VH 2: EVHLVESGGDLVKPGGSLRLSCVASGITFNRYYMNWVRQTPGKGLQWVAYIDSGGSPTTYADAVKGRFTISRDNAKNTLYLQMNSLRAEDTAVYYCTSFDYWGQGTLVTVSS
VL: SYVLTQLPSKNVTLKQPAHITCGGDNIGSKSVHWYQQKLGQAPVLIIYYDSSRPTGIPERFSGANSGNTATLTISGALAEDEADYYCQVWDSSAKAWVFGEGTQLTVL
In the case of B7, in assay [3], the “EC50 (nM), endogenous B cell depletion” value turned out to be 0.183 nM. Also, the “EC50 (nM), bispecific killing (FIG. 15)” value in assay [4] came out at 0.121 nM.

B8: PMX172VH/PMX233VH/PMX172VL (bispecific antibody, V domains shown)
VH 1: EVQLVESGGDLVKPGGSLRLSCVASGFTFSSYHMSWVRQAPGKGLQWVAYSNSGGSRTSYADAVKGRFTISRDNAKNTLYLQMNSLRAEDTAVYYCASEGGGGRYGYKDYGMDYWGHGTSLFVSS
VH 2: EMQLVESGGDLVKPGGSLRLSCVASGFTFSRYYMNWVRQAPGKGLQWVAYIDSGGSPTNYADAVKGRFTISRDNAKNTLYLQMNSLRAEDAAIYYCTTFDFWGQGTLVTVSS
VL: SYVLTQLPSKNVTLKQPAHITCGGDNIGSKSVHWYQQKLGQAPVLIIYYDSSRPTGIPERFSGANSGNTATLTISGALAEDEADYYCQVWDSSAKAWVFGEGTQLTVL
As to B8, the “EC50 (nM), endogenous B cell depletion” value in assay [3] was 0.307 nM. Besides, in assay [4], the “EC50 (nM), bispecific killing (FIG. 15)” value was 0.188 nM.

B9: PMX172VH/PMX235VH/PMX172VL (bispecific antibody, V domains shown)
VH 1: EVQLVESGGDLVKPGGSLRLSCVASGFTFSSYHMSWVRQAPGKGLQWVAYSNSGGSRTSYADAVKGRFTISRDNAKNTLYLQMNSLRAEDTAVYYCASEGGGGRYGYKDYGMDYWGHGTSLFVSS
VH 2: EVQLVESGGDLVKPGGSLRLSCVASGITFSRYYMNWVRQAPGKGLQWVAYINTGESSTIYSDAVKGRFTISRDNAKNTLYLQMNSLRAEDTAVYYCTTLEYWGQGTLVTVSS
VL: SYVLTQLPSKNVTLKQPAHITCGGDNIGSKSVHWYQQKLGQAPVLIIYYDSSRPTGIPERFSGANSGNTATLTISGALAEDEADYYCQVWDSSAKAWVFGEGTQLTVL
As for B9, in assay [4], the “EC50 (nM), bispecific killing (FIG. 15)” value amounted to 0.445 nM.

B10: PMX172VH/PMX234VH/PMX172VL (bispecific antibody, V domains shown)
VH 1: EVQLVESGGDLVKPGGSLRLSCVASGFTFSSYHMSWVRQAPGKGLQWVAYSNSGGSRTSYADAVKGRFTISRDNAKNTLYLQMNSLRAEDTAVYYCASEGGGGRYGYKDYGMDYWGHGTSLFVSS
VH 2: ELQLVESGGDLVKPGGSLRLSCVASGFTFSRYYLNWVRQAPGKGLQWVAFITSGGSSTNYADAVKGRFTISRDNAKNTLYLQMNSLRAEDTAVYYCTSFDSWGQGTLVTVSS
VL: SYVLTQLPSKNVTLKQPAHITCGGDNIGSKSVHWYQQKLGQAPVLIIYYDSSRPTGIPERFSGANSGNTATLTISGALAEDEADYYCQVWDSSAKAWVFGEGTQLTVL
In the case of B10, in assay [4], the “EC50 (nM), bispecific killing (FIG. 15)” value was determined as 0.412 nM.
